Assays:
[1] = tested on: CD4+ CD45RO+ / CD45RA+ T cells and plastic adherent cells; assay: SEA proliferation of memory or resting T cells with accessory cells; format: cell-based, human; details: immobilized antibody 3 hours
Excerpt: Because both T cells and accessory cells express high levels of ICAM-R, the inhibition of cell-cell contact dependent T cell activation during the response to SEA by ICR-1.1 could be mediated by ICR-1.1 binding to T cells, accessory cells or both. Additionally, because ICAM-R and ICAM-1 differ markedly in their expression on nonactivated T cells, it is possible that anti-ICAM-1 and anti-ICAM-R may inhibit the SEA response by targeting T cell subsets in different states of activation. Because the role of ICAM-R may differ in naive and memory cells, the ability of anti-ICAM-R antibodies to inhibit SEA induced proliferation of CD4^+ CD45RO^+ (“memory”) cells, or CD4^+ CD45RA^+ (“resting”) cells was tested. […] nonadherent PBMC (10^7 cells/ml) were incubated for 1 hour at 4° C. with a cocktail of antibodies (1μg/ml each) containing anti-CD8, anti-CD19, anti-CD11b, anti-HLA-DR (Becton Dickinson) and either anti-CD45RO (Amac) (to obtain CD45RA^+ CD4^+ cells), or anti-CD45RA (Amac) (to obtain CD45RO^+ CD4^+ cells) in coating medium. The cell suspension was washed twice with coating medium to remove unbound antibody and incubated with goat anti-mouse IgG coated magnetic beads. Cells bound to magnetic beads were then removed from the suspension using a strong magnet. […] Two hundred thousand purified memory T cells, resting T cells or plastic adherent cells were incubated on immobilized ICR-1.1, anti-ICAM-1 antibody LB-2 or anti-HLA-I antibody p10.1 (10 μg/ml) (Gerald Nepom, Virginia Mason Research Center, Seattle, Wash.) for 3 hours. The antibody treated memory or resting T cells were removed to clean wells and admixed with 2×10^4 plastic adherent cells. Antibody treated accessory cells were admixed with either untreated memory T cells or untreated resting T-cells. Each reconstituted culture was then stimulated with SEA (10 pg/ml). […]

[2] = tested on: PBL; assay: Detergent resistance (cytoskeleton association) assay, PBL; format: cell-based, human
Protocol: Experiments were conducted using freshly prepared human PBL or the human T lymphoblastoid cell line CEM-CCRF (ATCC CCL119). Briefly, freshly drawn human blood from healthy volunteer donors was diluted 1:1 with PBS and layered onto Sigma HistoPaque density separation medium. The gradients were centrifuged for 30 minutes at 1500 rpm (600×g) and the mononuclear cell fraction at the interphase was collected and washed three times with PBS. The cell pellet was resuspended in complete RPMI-1640 medium (Gibco, supplemented with L-glutamine, penicillin/streptomycin, sodium pyruvate, 2-mercaptoethanol, and 10% FBS) and plated onto tissue culture-treated petri dishes for adherent cell depletion. Plates were incubated 1-2 hours at 37° C., 5% CO2 after which nonadherent PBL were harvested and washed twice with ice-cold PBS. Conjugation of monoclonal antibodies to fluorescein using fluorescein isothiocyanate (FITC) was performed according to published procedures [see, e.g., Goding, J. Immunol. Meth., 13: 215 (1976)] and, in brief, involves incubation of purified antibody with an excess of FITC (Sigma) in 0.1M bicarbonate buffer pH 8.1 for 90 minutes at 37° C. followed by exhaustive dialysis against PBS to remove unreacted FITC. […]

[3] = tested on: human basophils; assay: Basophil histamine release; format: cell-based; details: added simultaneously with anti-IgE 0.01 μg/ml
Excerpt: Basophils were obtained at low purity by dextran sedimentation of erythrocytes in EDTA-anti-coagulated peripheral venous blood, at slightly enriched percentages from mononuclear cell layers of density gradient Percoll centrifugation preparations, and at high purity (>70%) from leukophoresis packs following clutriation and density gradient centrifugation. In the assays, polyclonal goat anti-human IgE and ICAM-R monoclonals antibodies ICR-1.1, ICR-2.1, ICR-4.2 and ICR-8.1 were used alone or in combination. The […] was used to induce histamine release which was quantitated using an automated fluorometric assay after a 45 minute incubation with secretagogue. LTC4 production was measured by radioimmunoassay as previously described in Schleimer et al., J. Immunol., 143:1310-1317 (1989), while IL-4 in cell supernatants was assayed using the IL-4 Quantikine ELSA kit (R&D Systems, Minneapolis, Minn.). Basophil adhesion to unstimulated or IL-1 treated monolayers of human umbilical vein endothelial cells was examined as previously described in Bochner et al., J. Clin. Invest., 81: 1355-1360 (1988) and Bochner et al., J. Immunol., 142: 3180-3186 (1989), in the presence or absence of ICR-2.1 monoclonal antibody. […]

B1: ICR-1.1: anti-ICAM-R monoclonal antibody, IgG2a, domain 1, ATCC HB 11053 (antibody, V domains shown)
VH: QVQLQQSGAELAKPGASVKMSCKASGYTFTVYWMHWVKQRPGQGLEWIGYINPNTDYTEYNQRFQDKATLTADKSSSTAYMQLSSLTSEDSAVYYCARWGGNSYGLDYWGQGTSVTVSS
VL: QIVLTQSPALMSASPGEKVTMTCSASSSVSYIYWYQQKPRSSPKPWIYLTSNLASGVPARFSGSGSGASYSLTISIMEAEDAATYYCQQWKSIPLTFGAGTKLELK
For B1, the “CD45RA+ cell proliferation, pretreatment of adherent cells” value [1] was “modest inhibition of CD45RA^+ cell proliferation”, the “SEA response, pretreatment of CD45RA+ T cells (FIG. 14)” value [1] was “did not affect SEA responses” and the “SEA proliferation, pretreatment of T cells or accessory cells (FIG. 13)” value ([1]; versus p10.1 control) was “blocked proliferative responses to SEA”. For the same molecule, the “greater increase in detergent resistance, crosslinked antibody” value [2] was “approximately 2 fold”.

B2: ICR-8.1: anti-ICAM-R monoclonal antibody, IgG1, domain 1, ATCC HB 11232 (antibody, V domains shown)
VH: EIQLQQTGPELVKPGASVKISCKASGYSFTDCIILWVKQSHGKGLEWIGKINPYFGTTTYNLKFKGKATLTVDKSSSTAHMQLNSLTSEDSAVYYCARKEAYPDAMDYWGQGTSVTVSS
VL: DAVMTQTPLSLPVSLGDQASISCRSSQSLVHSNGDTYLHWYLQKPGQSPQLLIYKVSNRFSGVPDRFSGSGSGTDFTLKLSRVEAEDLGVYFCSQSTHVPYTFGGGTKLEIK
With B2 the anti-IgE-induced histamine release [3] was “neither ICR-8.1 nor the domain 2-specific monoclonal antibody ICR-4.2 had any significant potentiating activity”.

From patent US20040248211A1, “ICAM-related protein” (priority 1992, published 2004)
